Source: patent publication US20050130265A1

Biological target: Aiolos (mouse) (UniProt O08900)
Test: cell-based or functional assay

Sequence of Aiolos (mouse) (O08900 other isoform, or with tags, fused parts or gaps limits assumed): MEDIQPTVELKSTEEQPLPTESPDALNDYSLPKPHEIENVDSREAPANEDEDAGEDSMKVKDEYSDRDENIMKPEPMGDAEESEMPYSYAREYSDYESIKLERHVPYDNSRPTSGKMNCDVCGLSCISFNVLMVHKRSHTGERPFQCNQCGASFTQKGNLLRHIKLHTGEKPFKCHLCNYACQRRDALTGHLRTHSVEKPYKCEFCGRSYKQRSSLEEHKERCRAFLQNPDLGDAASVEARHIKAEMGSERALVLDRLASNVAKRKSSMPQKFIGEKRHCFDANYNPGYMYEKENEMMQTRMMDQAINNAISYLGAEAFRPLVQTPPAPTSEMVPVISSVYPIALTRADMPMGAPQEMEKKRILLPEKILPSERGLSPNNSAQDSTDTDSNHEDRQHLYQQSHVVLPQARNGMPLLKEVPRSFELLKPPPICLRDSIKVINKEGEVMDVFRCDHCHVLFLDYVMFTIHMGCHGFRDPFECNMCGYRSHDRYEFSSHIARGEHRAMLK

“Ikaros isoform Ik-6 (from UniProt Q03267 1-288)” gave a CAT activity from the 4xIK-BS1-tkCAT reporter in transfected NIH-3T3 cells of 65 % reduction.
